Results from PMC3671775.

Target: extracellular fragment of human macrophage galactose receptor (MGL) isoform 3 (human)
Assay: cross-linking

“extracellular fragment of human macrophage galactose receptor (MGL) isoform 3 (domain or fragment)” gave a stoichiometry N of 3.
